Laboratory results as given in patent US20030100089A1.
Each block holds one molecule with its values, some of them ahead of it.

Key:
MMP-7 = target: T1, MMP-7; experiment: cell-based or functional assay
T1 sequence (P09237 95-267, species assumed, looked up): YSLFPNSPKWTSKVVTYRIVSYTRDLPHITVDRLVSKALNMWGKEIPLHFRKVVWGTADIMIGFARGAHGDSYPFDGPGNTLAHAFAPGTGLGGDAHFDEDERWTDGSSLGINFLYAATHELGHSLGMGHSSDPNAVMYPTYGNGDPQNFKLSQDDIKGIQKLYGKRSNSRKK

Cathepsin D = experiment: cell-based or functional assay
[1] = target: human leukocyte elastase (HLE) (human) (UniProt P08246); experiment: cell-based or functional assay
Chymotrypsin = experiment: cell-based or functional assay
Papaine = experiment: cell-based or functional assay
Plasmin = experiment: cell-based or functional assay
[2] = target: porcine pancreatic elastase (PPE) (porcine) (UniProt P00772); experiment: cell-based or functional assay
UniProt P00772, sequence (P00772 27-266): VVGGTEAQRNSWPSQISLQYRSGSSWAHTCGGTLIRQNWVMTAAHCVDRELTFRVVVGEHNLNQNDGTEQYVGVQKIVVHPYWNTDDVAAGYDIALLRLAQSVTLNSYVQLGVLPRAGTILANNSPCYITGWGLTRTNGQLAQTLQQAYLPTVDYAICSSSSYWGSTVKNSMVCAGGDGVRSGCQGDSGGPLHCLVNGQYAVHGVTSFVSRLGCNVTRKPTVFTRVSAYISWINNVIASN

Thrombin = experiment: cell-based or functional assay
MMP-2 = experiment: cell-based or functional assay
Cathepsin G = target: T2, Cathepsin G; experiment: cell-based or functional assay
T2 sequence (P08311 21-244, species assumed, looked up): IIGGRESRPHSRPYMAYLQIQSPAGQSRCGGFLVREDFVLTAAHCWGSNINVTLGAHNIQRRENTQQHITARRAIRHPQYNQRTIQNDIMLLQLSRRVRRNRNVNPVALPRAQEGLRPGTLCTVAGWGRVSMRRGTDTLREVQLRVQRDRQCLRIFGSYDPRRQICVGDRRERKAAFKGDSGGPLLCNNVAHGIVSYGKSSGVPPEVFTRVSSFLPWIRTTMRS

Trypsin = experiment: cell-based or functional assay
[3] = target: p54 protein (glycoprotein of about 54 kDa isolated from shark cartilage, serine protease inhibitor)

- Activity (% inhibition) (MMP-7): 0 % inhibition
- Activity (% inhibition) (Cathepsin D): 0 % inhibition
- Activity (% inhibition) [1]: 42 % inhibition
- Activity (% inhibition) (Chymotrypsin): 53 % inhibition
- Activity (% inhibition) (Papaine): 8 % inhibition
- Activity (% inhibition) (Plasmin): 49 % inhibition
- Activity (% inhibition) [2]: 84 % inhibition
- Activity (% inhibition) (Thrombin): 0 % inhibition
- Activity (% inhibition) (MMP-2): 0 % inhibition
- Activity (% inhibition) (Cathepsin G): 0 % inhibition
- Activity (% inhibition) (Trypsin): 30 % inhibition
Molecule: p54 protein (glycoprotein of about 54 kDa isolated from shark cartilage, serine protease inhibitor)

- Activity (% inhibition) (MMP-7): 0 % inhibition
- Activity (% inhibition) (Cathepsin D): 77 % inhibition
- Activity (% inhibition) (Chymotrypsin): 100 % inhibition
- Activity (% inhibition) (Plasmin): 49 % inhibition
- Activity (% inhibition) [2]: 64 % inhibition
- Activity (% inhibition) (Cathepsin G): 68 % inhibition
- Activity (% inhibition) (Trypsin): 94 % inhibition
Molecule: Alpha 1-antitrypsin (AAT)

B1: human leukocyte elastase (HLE) (protein)
chain: IVGGRRARPHAWPFMVSLQLRGGHFCGATLIAPNFVMSAAHCVANVNVRAVRVVLGAHNLSRREPTRQVFAVQRIFENGYDPVNLLNDIVILQLNGSATINANVQVAQLPAQGRRLGNGVQCLAMGWGLLGRNRGIASVLQELNVTVVTSLCRRSNVCTLVRGRQAGVCFGDSGSPLVCNGLIHGIASFVRGGCASGLYPDAFAPVAQFVNWIDSIIQ
- elastase assay (fluorescent elastin substrate) [3]: The inhibition of elastase by the p54 protein was also validated with a human leukocyte elastase
